Substitutions are numbered along the chain they refer to.

As usually defined, the EC50 is the concentration at which the effect is half-maximal. Lower therefore signals higher potency in that assay.

Test [1] deals with T1, 细胞表面CTLA-4抗原 (CTLA-4 on cells) (UniProt P16410 36-223, limits assumed).
T1 construct: whole, on cells; Also used as the target of the mixed lymphocyte reaction rows, where CTLA-4 stands on primary CD4+ T cells; also called 细胞表达的CTLA-4抗原; 过表达CTLA-4抗原的CHO细胞
T1 sequence (looked up): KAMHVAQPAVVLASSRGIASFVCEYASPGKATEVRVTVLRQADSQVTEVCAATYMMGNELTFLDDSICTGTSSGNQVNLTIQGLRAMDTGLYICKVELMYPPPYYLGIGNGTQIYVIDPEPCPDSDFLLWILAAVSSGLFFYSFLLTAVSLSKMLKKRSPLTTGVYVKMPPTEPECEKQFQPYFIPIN
Briefly: flow cytometry on CHO cells over-expressing CTLA-4, Alexa488 anti-human IgG Fc. On the technique in general: Flow cytometry measures light scatter and fluorescence of single cells or particles in a stream.

Test [2] deals with T2, CTLA-4 (antigen coated on ELISA plates and immunotubes) (UniProt P16410 36-161, limits assumed).
T2 construct: also called CTLA-4抗原; 细胞毒性T淋巴细胞相关抗原4
T2 sequence (looked up): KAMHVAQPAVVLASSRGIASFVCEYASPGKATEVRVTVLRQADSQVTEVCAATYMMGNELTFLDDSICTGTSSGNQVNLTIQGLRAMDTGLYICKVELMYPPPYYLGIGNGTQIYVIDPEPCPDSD
Briefly: ELISA, full antibody on coated CTLA-4, anti-human IgG-HRP. For orientation: ELISA stands for enzyme-linked immunosorbent assay.

Test [3] concerns the target T1, 细胞表面CTLA-4抗原 (CTLA-4 on cells). Nature of the test: cell-based or functional assay.

B1: 全抗N-2 (antibody, human IgG1, kappa, V domains shown)
VH: QVQLVESGGGVVQPGRSLRLSCAASGFTFSSIFKRWVRQAPGKGLEWVTFISYDGLDHINGDSVKGRFTISRDNSKNTLYLQMNSLRAEDTAIYYCARRYRWWGKAMDYWGQGTLVTVSS
VL: DIVMTQSPLSLPVTPGEPASISCKSSQSVIDSKGYTYLGWYLQKPGQSPQLLIYLGTQKSSGVPDRFSGSGSGTDFTLKISRVEAEDVGVYYCLQRGHIPITFGQGTKLEIKR
notes: also called 抗CTLA-4全抗体N-2
Consider B1, for which the EC50 in test [1] was 8.95 ng/mL; in test [2], 0.11 µg/mL. Also, in test [3], the “混合淋巴细胞反应(MLR), CD4+ T细胞增殖 (cck8), EC50” value was found to be 8.31 nM.

B2: 全抗N-8 (antibody, human IgG1, kappa, V domains shown)
VH: B1 VH with S31G, I32F, F33S, K34I, R35C, D57L, H58F, I59L, N60I, G61A
VL: DIVMTQSPLSLPVTPGEPASISCRSSQTVFDSHGQTYLQWYLQKPGQSPQLLIYGASRQVSGVPDRFSGSGSGTDFTLKISRVEAEDVGVYYCMQVWHLPITFGQGTKLEIKR
notes: also called 抗CTLA-4全抗体N-8
As to B2, the 50% effective concentration (EC50) in test [1] worked out at 6.49 ng/mL; in test [2], 0.164 µg/mL. Also, the “混合淋巴细胞反应(MLR), CD4+ T细胞增殖 (cck8), EC50” value in test [3] came to 7.32 nM.

B3: 全抗N-5 (antibody, human IgG1, kappa, V domains shown)
VH: B1 VH with S31G, I32F, K34N, G55A, D57K, H58D, I59F, N60Y, G61A, Q112P
VL: B2 VL
notes: also called 抗CTLA-4全抗体N-5; N-5的全抗体
On to B3, for which the EC50 in test [1] was determined as 6.12 ng/mL; in test [2], 0.0689 µg/mL. In addition, the “混合淋巴细胞反应(MLR), CD4+ T细胞增殖 (cck8), EC50” value in test [3] stood at 4.95 nM.

B4: 全抗N-7 (antibody, human IgG1, kappa, V domains shown)
VH: QVQLVESGGGVVQPGRSLRLSCAASGFTFSGIYCNWVRQAPGKGLEWVTFISYDSILNVIADSVKGRFTISRDNSKNTLYLQMNSLRAEDTAIYYCARRYRWWGKAMDYWGQGTLVTVSS
VL: B2 VL
notes: also called 抗CTLA-4全抗体N-7
B4: the EC50 stood at 7.92 ng/mL in test [1] and 0.0865 µg/mL in test [2]. The “混合淋巴细胞反应(MLR), CD4+ T细胞增殖 (cck8), EC50” value in test [3] was found to be 6.31 nM.

B5: 全抗N-3 (antibody, human IgG1, kappa, V domains shown)
VH: B1 VH with S31G, K34S, R35S, G55S, D57K, H58Q, I59K, N60D
VL: B1 VL
notes: also called 抗CTLA-4全抗体N-3
For the molecule B5, the EC50 was determined as 8.96 ng/mL in test [1] and 0.264 µg/mL in test [2]. The “混合淋巴细胞反应(MLR), CD4+ T细胞增殖 (cck8), EC50” value in test [3] was determined as 14.2 nM.

B6: 全抗N-6 (antibody, human IgG1, kappa, V domains shown)
VH: B1 VH with I32N, F33T, K34L, G55S, D57F, H58L, I59D, N60Q
VL: B2 VL
notes: also called 抗CTLA-4全抗体N-6
For B6, the results for the EC50 in test [1] and in test [2] were 7.05 ng/mL and 0.127 µg/mL, respectively. Besides, the “混合淋巴细胞反应(MLR), CD4+ T细胞增殖 (cck8), EC50” value in test [3] amounted to 6.67 nM.

B7: 全抗N-4 (antibody, human IgG1, kappa, V domains shown)
VH: B1 VH with S31A, I32F, F33Y, K34N, R35P, L56V, D57Y, H58F, I59H, N60F
VL: B1 VL
notes: also called 抗CTLA-4全抗体N-4
Regarding B7, the EC50 in test [1] was determined as 11.1 ng/mL; in test [2], 0.0922 µg/mL. For the same molecule, the “混合淋巴细胞反应(MLR), CD4+ T细胞增殖 (cck8), EC50” value in test [3] worked out at 15.4 nM.

B8: 全抗N-1 (antibody, human IgG1, kappa, V domains shown)
VH: B4 VH with I32Y, Y33N, C34G, S55G, I56L, L57N, N58D, I60K
VL: B1 VL
notes: also called 抗CTLA-4全抗体N-1
With B8, the figures for the EC50 in test [1] and in test [2] were 7.09 ng/mL and 0.163 µg/mL, respectively. In test [3], the “混合淋巴细胞反应(MLR), CD4+ T细胞增殖 (cck8), EC50” value is 7.34 nM.

These data come from patent CN110840830A (BEIJING DONGFANG BIOTECH CO LTD, dated 2020).
